Positions count from the first letter of the chain named. Entries after “also recorded” stand apart in the source; their conditions may differ.
T1: FSTL1 (Homo sapiens, UniProt Q12841)
T1 sequence (Q12841 21-308): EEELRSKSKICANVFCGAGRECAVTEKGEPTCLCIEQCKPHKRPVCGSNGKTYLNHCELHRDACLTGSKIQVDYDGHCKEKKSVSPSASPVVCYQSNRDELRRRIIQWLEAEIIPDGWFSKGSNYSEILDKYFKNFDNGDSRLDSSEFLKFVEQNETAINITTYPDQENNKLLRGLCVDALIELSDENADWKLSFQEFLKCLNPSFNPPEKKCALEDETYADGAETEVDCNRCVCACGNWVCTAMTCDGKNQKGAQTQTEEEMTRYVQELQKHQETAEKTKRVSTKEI

B1: #5-43: chicken-mouse chimeric anti-FSTL1 antibody clone; variable regions SEQ ID NO: 779 (light), 781 (heavy) (antibody, V domains shown)
VH: AVTLDESGGGLQTPGGGLSLVCKGSGFTFSSFNMFWVRQAPGKGLEWVAGIGKDGGTGYGAAVDGRATISKDSGQSTLRLQLNNLRAEDTGTYYCAKAAGGCSYDWCGAYTGDIDTWGHGTEVIVSS
VL: ASTQPSSVSANPGEAVKITCSGGSGSYYGWYQQKSPGSAPVTVIYNNNQRPSDIPSRFSGSKSGSTATLTITGVQAEDEAVYFCGGYDSSTGHGGIFGAGTTLTVL
modifications: mouse constant regions
B2: #5-3: chicken-mouse chimeric anti-FSTL1 antibody clone; variable regions SEQ ID NO: 767 (light), 769 (heavy) (antibody, V domains shown)
VH: B1 VH with G17A, T28S, G56V, T57P, G58K, S73N, L78M, Y94F, A109I, T111A
VL: ASTQPSSVSANPGETVKITCSGGSGYYYGWYQQKSPGSVPVTVIYNNNNRPSDIPSRFSGSKSGSTGTLTITGVRAEDEAVYYCGGYDNSGTGIFGAGTTLTVL
modifications: mouse constant regions
B3: #8-1: chicken-mouse chimeric anti-FSTL1 antibody clone; variable regions SEQ ID NO: 791 (light), 793 (heavy) (antibody, V domains shown)
VH: B1 VH with G17A, G56V, T57P, G58K, S73N, L78M, Y94F, A109I, T111A
VL: B1 VL with T91S
modifications: mouse constant regions
B4: #6-55: chicken-mouse chimeric anti-FSTL1 antibody clone; variable regions SEQ ID NO: 783 (light), 785 (heavy) (antibody, V domains shown)
VH: AVTLDESGGGLQTPGGALSLVCKGSGFTFTSVTMQWVRQAPGKGLEWVASVCSGSSTYYAPAVKGRATISRDNGQSTVRLQLSNLRPEDTGTYYCAKIAGRARWSCTSAAYNIDAWGHGTEVIVSS
VL: ASTQPSSVSAIPGETVKITCSGGGNNYGWYQQRSPGSAPVTVIYYNDNRPSNIPSRFSGSTSGSTSTLTITGVQADDEAIYYCGSWDSNTDSGIFGAGTTLTVL
modifications: mouse constant regions
B5: #7-34: chicken-mouse chimeric anti-FSTL1 antibody clone; variable regions SEQ ID NO: 787 (light), 789 (heavy) (antibody, V domains shown)
VH: AVTLDESGGGLQTPGGGLSLVCKASGFTFSSVTMQWVRQAPGKGLEWVASICSGSSTYYGPAVKGRATISRDNGQNTVRLQLNNLRAEDTATYYCAKIVGRGRWSCTSAAYNIDAWGHGTEVIVSS
VL: B4 VL with I11N, R33K, D47N, D76E, I80V, W86Y, D87E, S88G, N89S
modifications: mouse constant regions

Assays:
[1] = biological target: T1, FSTL1; experiment: Inhibition of MSC induction by FSTL1 in mouse bone marrow cells, CD45-negative cells (Examples 6, 8, 12); type: cell-based; set-up: purchased R&D Systems, Inc. 1694-FN-050; conditions: antibody 10 μg/mL
Procedure: Mouse bone marrow cells prepared in the same way as in Example 4 were supplemented with 50 ng/mL (final concentration) of FSTL1 and 10 μg/mL of the anti-FSTL1 antibody (#5-2, #5-3, #5-8, #5-10, 45-43, #6-55, or #7-34) or a control antibody anti-DNP antibody and cultured under stimulation. 11 days thereafter, the number of cells was counted while the cells were stained with a PE-Cy5-labeled anti-CD45 antibody (BD Pharmingen/Becton, Dickinson and Company, Cat. No. 555484), and the content of CD45− negative cells reported to generally contain MSCs at a high rate was analyzed by flow cytometry using FACScan to calculate the percentage and number of MSCs per culture (FIG. 67A).
(§1) Mouse bone marrow cells prepared in the same way as in Example 4 were supplemented with 20 ng/mL (final concentration) of FSTL1 and 10 μg/mL of the anti-FSTL1 antibody (#5-2, #5-3, #5-8, #5-10, #5-43, #6-55, #8-1, #8-4, #8-7, and #8-8) or a control antibody anti-DNP antibody and cultured under stimulation. 8 days thereafter, the number of cells was counted while the cells were stained with a PE-Cy5-labeled anti-CD45 antibody, and the content of CD45− negative cells was analyzed by flow cytometry using FACScan to calculate the percentage and number of MSCs per culture (FIG. 68A).
as §1, with “(#5-2,” for “(#5-2, #5-3,”, “#5-8,” for “#5-8, #5-10, #5-43,”, “#6-55, #7-34,” for “#6-55,”, “#8-7, or” for “#8-7, and”, “(FIG. 69).” for “(FIG. 68A).”

[2] = biological target: T1, FSTL1; experiment: Inhibition of activation of tumor cells by FSTL1, RANKL- and CCR2-positive cells in human pancreatic cancer cell line Panc1 (Examples 5, 7, 9, 10, 11); type: cell-based; set-up: purchased R&D Systems, Inc. 1694-FN-050; conditions: for inhibitory activity against the expansion of RANKL-positive cells and CCR2-positive cells: FSTL1 50 ng/mL
Procedure: It is known that tumor cells activated by stimulation with FSTL1 highly express molecule groups promoting bone metastasis and increase metastatic invasive capacity (Cancer Research 73: 6185, 2013). Thus, 2×10^7 cells/well of a human pancreatic cancer cell line Panc1 were suspended in 1 mL/well of D-MEM medium (GIBCO/Thermo Fisher Scientific Inc. Cat. No. C11885500BT) containing 10% fetal bovine serum, supplemented with 50 ng/mL (final concentration) of FSTL1 (R&D Systems, Inc.) and 10 μg/mL of the anti-FSTL1 antibody (#5-2, #5-8, #5-10, #5-43, #6-55, or #7-34) or its isotype mouse IgG (anti-DNP antibody) as a control antibody “Control”, and cultured under stimulation (6-well plate). 3 days thereafter, the number of cells was counted while the cells were stained with a PE-labeled anti-RANKL antibody (eBioscience Cat. No. 12-6619) and a PE-labeled anti-CCR2 antibody (R&D Systems, Inc. Cat. No. FAB151P) in order to examine the expression of markers indicating bone metastatic properties, and the contents of RANKL-positive cells and CCR2-positive cells were analyzed by flow cytometry using FACScan (Becton, Dickinson and Company) to calculate the numbers of cells per culture. […] Therefore, in Examples below, judgment was made with the number of cells as an index.
(§2) In the same way as in Example 5, a human pancreatic cancer cell line Panc1 was supplemented with 50 ng/mL (final concentration) of FSTL1 (R&D Systems, Inc.) and 10 μg/mL of the anti-FSTL1 antibody (the same clones as in Example 6) or a control antibody and cultured under stimulation. 3 days thereafter, the number of cells was counted while the cells were stained with a PE-labeled anti-RANKL antibody and a PE-labeled anti-CCR2 antibody, and the contents of RANKL-positive cells and CCR2-positive cells were analyzed by flow cytometry using FACScan (Becton, Dickinson and Company) to calculate the numbers of cells per culture (FIG. 67B).
as §2, with “20” for “50”, “FSTL1” for “FSTL1 (R&D Systems, Inc.)”, “(#5-2, #5-8, or #6-55)” for “(the same clones as in Example 6)”, “68B).” for “67B).”
as §2, with “FSTL1” for “FSTL1 (R&D Systems, Inc.)”, “(#5-2, #5-3, #6-55, #7-34, #8-1, #8-4, #8-7, or #8-8)” for “(the same clones as in Example 6)”, “culture.” for “culture (FIG. 67B).”
as §2, with “FSTL1” for “FSTL1 (R&D Systems, Inc.)”, “(#6-55)” for “(the same clones as in Example 6)”, “culture.” for “culture (FIG. 67B).”

[3] = Example 6, FSTL1 50 ng/mL, 11 days
[4] = Example 8, FSTL1 20 ng/mL, 8 days
[5] = Example 12, FSTL1 20 ng/mL, 8 days

Row | Molecule | inhibitory activity against the expansion of CD45-negative cells by FSTL1 [1, 3] | inhibitory activity against the expansion of CD45-negative cells by FSTL1 [1, 4] | inhibitory activity against the expansion of CD45-negative cells by FSTL1 [1, 5] | also measured
1 | B1 | higher inhibitory activity and substantially completely inhibited the action of FSTL1 | Inhibitory activity was confirmed; also recorded: exhibited inhibitory activity | – | –
2 | B2 | higher inhibitory activity and substantially completely inhibited the action of FSTL1 | – | – | inhibitory activity against the expansion of RANKL-positive cells and CCR2-positive cells ([2]; Example 7, antibody 10 μg/mL, 3 days): higher inhibitory activity
3 | B3 | – | Inhibitory activity was confirmed; also recorded: exhibited inhibitory activity | – | –
4 | B4 | – | Inhibitory activity was confirmed; also recorded: exhibited inhibitory activity | higher inhibitory activity was confirmed in the order of #7-34, #5-2, #6-55, and #8-7 | inhibitory activity against the expansion of RANKL-positive cells and CCR2-positive cells ([2]; Example 10, antibody 10 μg/mL, 3 days, including newly obtained clones): higher inhibitory activity; also recorded: high inhibitory activity; inhibition of cell induction of RANKL-positive cells and CCR2-positive cells (dose dependence test) ([2]; Example 11, figure legend): strongly inhibited the cell induction of both RANKL-positive cells and CCR2-positive cells; inhibitory activity against the expansion of RANKL-positive cells and CCR2-positive cells ([2]; Example 11, all tested doses 5, 10 and 20 μg/mL, dose dependence not confirmed): ~100%
5 | B5 | higher inhibitory activity and substantially completely inhibited the action of FSTL1 | – | stronger inhibitory activity was confirmed in the order of clone #7-34, #5-2, 46-55, and #8-7; also recorded: higher inhibitory activity was confirmed in the order of #7-34, #5-2, #6-55, and #8-7; also recorded: stronger inhibitory activity was confirmed in the order of clone #7-34, #5-2, 96-55, and #8-7 | –

From patent US20180021429A1, “ANTICANCER AGENTS OR ANTIMETASTATIC AGENTS USING FSTL1 AND COMBINATION DRUG THEREOF” (PHARMA FOODS INTERNATIONAL CO., LTD., priority 2015, published 2018)
